Several values for one entry are separate records, joined by “and”; a condition that tells them apart may be missing. Equal values may be shown once.
Biological target: IFNα receptor 2 (IFNAR2) on THP-1 cells (human) (UniProt P48551)
Assay: cell-based or functional assay

Sequence of UniProt P48551 (P48551 27-515): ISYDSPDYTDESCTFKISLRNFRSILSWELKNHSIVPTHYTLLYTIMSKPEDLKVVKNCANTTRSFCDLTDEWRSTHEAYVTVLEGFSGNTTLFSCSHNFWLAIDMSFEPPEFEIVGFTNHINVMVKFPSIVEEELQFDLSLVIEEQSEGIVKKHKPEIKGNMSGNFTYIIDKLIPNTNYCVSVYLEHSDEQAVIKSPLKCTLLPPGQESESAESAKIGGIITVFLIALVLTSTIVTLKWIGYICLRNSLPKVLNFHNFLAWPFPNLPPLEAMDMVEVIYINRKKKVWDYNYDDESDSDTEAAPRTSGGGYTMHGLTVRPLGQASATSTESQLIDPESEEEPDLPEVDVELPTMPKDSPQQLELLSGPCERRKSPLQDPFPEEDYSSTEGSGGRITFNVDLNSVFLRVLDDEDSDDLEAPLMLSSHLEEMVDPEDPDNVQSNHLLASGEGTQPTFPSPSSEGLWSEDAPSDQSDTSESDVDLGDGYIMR

pSTAT1 EC50 (THP-1 cells): 30 pM and 34.8 pM
Substance: 6HisC1G/C98 IFNα-2a + limitin loop (from UniProt P01563 25-188) (ligand)

Reference: patent US20080132681A1
